Square brackets hold non-standard residues; d marks the D form. Ends that are not written are not given here. Lys(Me3) = C[N+](C)(C)CCCC[C@H](N)C(=O)O; Lys(Me2) = CN(C)CCCC[C@H](N)C(=O)O; Lys(Me) = CNCCCC[C@H](N)C(=O)O

First the molecules themselves.
T1: RsAGDP1 AGD12 (residues 26–180) (Raphanus sativus)
T1 chain: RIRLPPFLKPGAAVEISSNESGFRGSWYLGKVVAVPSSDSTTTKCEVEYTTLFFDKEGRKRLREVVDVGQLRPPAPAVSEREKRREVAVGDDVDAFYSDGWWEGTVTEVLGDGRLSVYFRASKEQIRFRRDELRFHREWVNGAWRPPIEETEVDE

The first test concerns the target RsAGDP1 AGD56. Nature of the test: ITC. For orientation: In ITC the heat of successive injections is recorded.
On to ARTKQTARKSTGGKA (dimethyl-lysine at K9) [H3K9me2 peptide (ITC)], for which the affinity, expressed as Kd, was 26.2 µM.

For ARTKQTARKSTGGKA (trimethyl-lysine at K9) [H3K9me3 peptide (ITC)], the Kd (usually the constant that tells how readily two partners part at equilibrium) worked out at 52.9 µM.

As for ARTKQTARKSTGGKA (monomethyl-lysine at K9) [H3K9me1 peptide (ITC)], the Kd came out at 50 µM.

For a further test, the target named is RsAGDP1 AGD34. Nature of the test: ITC.
Molecule ARTKQTARKSTGGKA (trimethyl-lysine at K9) [H3K9me3 peptide (ITC)] returned a Kd of 10.7 µM.

ARTKQTARKSTGGKA (monomethyl-lysine at K9) [H3K9me1 peptide (ITC)] yielded a Kd of 10.1 µM.

Another test addresses T1, RsAGDP1 AGD12 (residues 26–180). As to the kind of experiment: ITC.
In turn, ARTKQTARKSTGGKA (trimethyl-lysine at K9) [H3K9me3 peptide (ITC)] returned a Kd of 101 µM.

Molecule ART[Lys(Me3)]QTAR[Lys(Me2)]STGGKA [H3K4me3K9me2 peptide] came in with a Kd of 103 µM.

ART[Lys(Me)]QTAR[Lys(Me2)]STGGKA [H3K4me1K9me2 peptide]: the dissociation constant (Kd) came to 23.4 µM.

ART[Lys(Me2)]QTAR[Lys(Me2)]STGGKA [H3K4me2K9me2 peptide]: the Kd was 25.5 µM.

Regarding ARTKQTARKSTGGKA (monomethyl-lysine at K9) [H3K9me1 peptide (ITC)], binding was put at a Kd of 84.7 µM.
